Assay results from patent US20140243208, “COMPOSITIONS AND METHODS FOR SELECTING APTAMERS” (Mediomics, LLC, published 2014).

What was measured:
Interleukin-10 (IL-10) = Interleukin-10 (IL-10) (Homo sapiens, UniProt P22301 P22301:19-178); assay: ELONA; only IL-10-3 and IL-10-6 of 6 showed potential binding; conditions: tags: coated on ELISA plate; chain copies: 2; label: hybridized biotin-labeled primer
Alpha-fetoprotein = target: T1, Alpha-fetoprotein (Homo sapiens, UniProt P02771 P02771:19-609); assay: ELONA; specificity control; conditions: label: hybridized biotin-labeled primer
T1 sequence: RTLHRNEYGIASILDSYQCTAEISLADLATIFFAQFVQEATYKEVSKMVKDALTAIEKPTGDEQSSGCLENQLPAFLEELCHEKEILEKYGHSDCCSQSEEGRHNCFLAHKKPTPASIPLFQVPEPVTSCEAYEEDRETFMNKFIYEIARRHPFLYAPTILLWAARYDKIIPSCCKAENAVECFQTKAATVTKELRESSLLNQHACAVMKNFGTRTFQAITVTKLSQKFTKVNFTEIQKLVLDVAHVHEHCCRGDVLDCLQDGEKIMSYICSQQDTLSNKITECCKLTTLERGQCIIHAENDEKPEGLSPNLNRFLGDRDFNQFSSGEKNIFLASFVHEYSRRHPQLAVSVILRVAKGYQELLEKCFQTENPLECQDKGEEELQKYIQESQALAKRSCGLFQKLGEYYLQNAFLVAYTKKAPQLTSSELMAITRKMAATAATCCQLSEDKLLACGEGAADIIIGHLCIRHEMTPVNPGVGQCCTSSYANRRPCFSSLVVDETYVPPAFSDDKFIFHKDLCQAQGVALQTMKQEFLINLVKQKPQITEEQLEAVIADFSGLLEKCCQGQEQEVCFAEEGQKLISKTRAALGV

C-reactive protein (CRP) = target: T2, C-reactive protein (CRP) (Homo sapiens, UniProt P02741 P02741:19-224); assay: ELONA; specificity control; conditions: chain copies: 5; label: hybridized biotin-labeled primer
T2 sequence: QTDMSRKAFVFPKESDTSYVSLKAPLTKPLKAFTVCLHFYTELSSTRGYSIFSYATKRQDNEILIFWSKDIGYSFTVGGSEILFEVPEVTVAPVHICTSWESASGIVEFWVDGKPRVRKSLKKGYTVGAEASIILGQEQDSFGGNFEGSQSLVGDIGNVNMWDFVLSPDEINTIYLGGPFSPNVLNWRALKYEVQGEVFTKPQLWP

Serum albumin = Serum albumin (Homo sapiens, UniProt P02768 P02768:25-609); assay: ELONA; specificity control; conditions: label: hybridized biotin-labeled primer
Troponin I (TnI) [1] = target: T3, Troponin I (TnI) (Homo sapiens, UniProt P19429 P19429:2-210); assay: ELONA; values only in figure; conditions: tags: coated on ELISA plate; label: hybridized biotin-labeled primer
Troponin I (TnI) [2] = target: T3, Troponin I (TnI); assay: ELONA; specificity control; conditions: tags: coated on ELISA plate; label: hybridized biotin-labeled primer
Troponin I (TnI) [3] = target: T3, Troponin I (TnI); assay: ELONA; very similar affinity to the other TNI aptamers; conditions: tags: coated on ELISA plate; label: hybridized biotin-labeled primer

Chain of Serum albumin (P02768 25-609, one chain of several): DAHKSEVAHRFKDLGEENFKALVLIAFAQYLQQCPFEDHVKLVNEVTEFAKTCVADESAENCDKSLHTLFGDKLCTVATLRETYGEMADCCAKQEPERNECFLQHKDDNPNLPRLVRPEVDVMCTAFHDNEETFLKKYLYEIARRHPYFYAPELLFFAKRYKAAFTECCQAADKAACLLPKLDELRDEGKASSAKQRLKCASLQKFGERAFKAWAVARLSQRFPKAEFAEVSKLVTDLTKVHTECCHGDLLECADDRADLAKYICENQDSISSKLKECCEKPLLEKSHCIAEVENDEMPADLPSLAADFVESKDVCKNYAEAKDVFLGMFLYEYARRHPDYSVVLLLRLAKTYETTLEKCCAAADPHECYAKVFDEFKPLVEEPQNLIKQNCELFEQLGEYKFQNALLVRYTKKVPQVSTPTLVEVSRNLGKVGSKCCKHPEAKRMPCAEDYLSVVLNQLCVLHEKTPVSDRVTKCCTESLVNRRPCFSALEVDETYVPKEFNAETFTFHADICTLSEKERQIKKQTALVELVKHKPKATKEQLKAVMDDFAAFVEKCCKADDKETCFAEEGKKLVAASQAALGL
T3 sequence (P19429 2-210, one chain of several): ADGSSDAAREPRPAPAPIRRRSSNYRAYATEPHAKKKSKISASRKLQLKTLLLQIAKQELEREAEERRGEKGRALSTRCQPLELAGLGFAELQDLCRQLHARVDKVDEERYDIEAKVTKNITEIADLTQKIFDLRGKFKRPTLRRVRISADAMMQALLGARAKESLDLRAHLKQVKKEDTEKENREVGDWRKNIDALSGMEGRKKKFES
Chain of Interleukin-10 (IL-10) (P22301 19-178, one chain of several): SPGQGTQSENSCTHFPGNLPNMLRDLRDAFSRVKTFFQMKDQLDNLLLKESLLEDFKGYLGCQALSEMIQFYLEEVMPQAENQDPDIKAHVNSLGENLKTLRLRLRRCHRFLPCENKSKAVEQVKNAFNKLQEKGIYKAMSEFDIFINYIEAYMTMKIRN

B1: IL-10-5 (ssDNA)
DNA: TAGGTGCTCGACGCTGACCCAGGCACACCTATCCAACTGTCACCGGCCACTCAGTCGCAGGTCATG
- binding result (Interleukin-10 (IL-10)): no binding

B2: IL-10-4 (ssDNA)
DNA: TAGGTGCTCGACGCTGACCCCCCAGTCACACCTTATGACCGTCCCGCCACTCAGTCGCAGGTCATG
- binding result (Interleukin-10 (IL-10)): no binding

B3: TNI-3 (ssDNA)
DNA: CTGTCGTTAGTGAAGGTTGGCGGCGGACCGGAACGAGCGGCAGTCGCAGTCGACCCCAACGCCATATCACAGACG
- binding result (Alpha-fetoprotein): no binding
- binding result (C-reactive protein (CRP)): no binding
- binding result (Serum albumin): no binding

B4: TNI-B3 (ssDNA)
DNA: CTGTCGTTAGTGAAGGTTGGCGGCGGACCGGAACTAGCGGCAGTCACAGTCGACCCCAACGCCATATCACAGACG
- binding result (Troponin I (TnI) [1]): binds

B5: TNI-CRP2 (ssDNA)
DNA: TAGGTGCTCGACGCTGACCCAGGACGGCACCTTAACCGCGCGTGGGCTACTCAGTCGCAGGTCATG
- binding result (Troponin I (TnI) [1]): binds

B6: TNI-B4 (ssDNA)
DNA: CTGTCGTTAGTGAAGGTTGCCCCGGGAACCGAAACTTGCGACCTGTCGTCACCTTGTAACGCCATATCACAGACG
- binding result (Troponin I (TnI) [1]): binds

B7: IL-10-1 (ssDNA)
DNA: TAGGTGCTCGACGCTGACCCAGGGCTACACCTTATCCATTCGCGCGGTACTCAGTCGCAGGTCATG
- binding result (Interleukin-10 (IL-10)): no binding

B8: IL-10-3 (ssDNA)
DNA: TAGGTGCTCGACGCTGACCCACGAAAGACACCGCAGTCCCTCCACGCTACTCAGTCGCAGGTCATG
- binding result (Troponin I (TnI) [2]): no binding
- binding result (C-reactive protein (CRP)): no binding
- binding result (Serum albumin): no binding

B9: TNI-1 (= TNI-B1, TNI-N1, TNI-MEDI1) (ssDNA)
DNA: CTGTCGTTAGTGAAGGTTGGCAACAACGACCGGGACTAACGGCAGCAGCGACACCGGTAACGCCATATCACAGACG
- binding result (Alpha-fetoprotein): no binding
- binding result (C-reactive protein (CRP)): no binding
- binding result (Serum albumin): no binding

B10: TNI-2 (ssDNA)
DNA: CTGTCGTTAGTGAAGGTTGGTAACAACGACCGGGACTAACGGCAGCAGCGACACCGGTAACGCCATATCACAGACG
- binding result (Troponin I (TnI) [3]): binds

B11: TNI-4 (ssDNA)
DNA: CTGTCGTTAGTGAAGGTTGCCAAGCGAACTGCGACAGGGGATCCAGGAGACGGCCCCAACGCCATATCACAGACG
- binding result (Alpha-fetoprotein): no binding
- binding result (C-reactive protein (CRP)): no binding
- binding result (Serum albumin): no binding

B12: TNI-B5 (ssDNA)
DNA: CTGTCGTTAGTGAAGGTTGGCGGCGGACCGGAACGAACGGCAGCAGCGACACCGGTAACGCCATATCACAGACG
- binding result (Troponin I (TnI) [1]): binds

B13: IL-10-2 (ssDNA)
DNA: TAGGTGCTCGACGCTGACCCAATCCTGACACACCGTATTAAGCCGCGTACTCAGTCGCAGGTCATG
- binding result (Interleukin-10 (IL-10)): no binding

B14: TNI-CRP4 (ssDNA)
DNA: TAGGTGCTCGACGCTGACGGGCGACACCGAGGGGGCTGGGGCGCGGGTACTCAGTCGCAGGTCATG
- binding result (Troponin I (TnI) [1]): binds

B15: TNI-N3 (= TNI-MEDI2) (ssDNA)
DNA: CTGTCGTTAGTGAAGGTTGGCGCAGGAACCTGAACGTTCGACGGGGTCGGCACCTGTAACGCCATATCACAGACG
- binding result (Troponin I (TnI) [1]): binds

B16: TNI-CRP3 (ssDNA)
DNA: TAGGTGCTCGACGCTGACCCAGGGGACACCTATCAATCGTCGTGCGGTACTCAGTCGCAGGTCATG
- binding result (Troponin I (TnI) [1]): binds

B17: IL-10-6 (ssDNA)
DNA: TAGGTGCTCGACGCTGACCGGGCATTGACACCTTATCGTGGGGTGGGGACTCAGTCGCAGGTCATG
- binding result (Troponin I (TnI) [2]): no binding
- binding result (C-reactive protein (CRP)): no binding
- binding result (Serum albumin): no binding

B18: TNI-B2 (= TNI-N2) (ssDNA)
DNA: CTGTCGTTAGTGAAGGTTGCAGGCACGCTGCGATATGTCCAGTTGACCCGGTTTGCCAACGCCATATCACAGACG
- binding result (Troponin I (TnI) [1]): binds

B19: TNI-CRP1 (ssDNA)
DNA: TAGGTGCTCGACGCTGACCCAGACCCACCAATATATGCCCCGCGGTGTACTCAGTCGCAGGTCATG
- binding result (Troponin I (TnI) [1]): binds
